Measured values as given in patent US20220177605A1 (University of Washington, published 2022).

Columns and labels:
[1] = target: T1, CA-14 bound to cannabidiol (CA-14-CBD complex) (non-covalently bound cannabidiol (CBD); AviTag biotinylated by BirA where immobilised (ELISA)); assay: BLI (Octet RED96), biotinylated DB on streptavidin sensor, 1 uM CA-14 pre-equilibrated with CBD
T1 construct: Same polypeptide as m1, pre-equilibrated with the small molecule cannabidiol; also called CBD-CA-14 complex; not shown: C-terminal AviTag and His tag
Source text: (§1) With the purified DB nanobodies in hand, we first sought to determine their binding affinities to the CA-14-CBD. CBD might directly bind to selected dimerization binders, which can affect the affinity measurement. To rule out this possibility, the four nanobodies were biotinylated (FIG. 7c) and immobilized on streptavidin biosensors, and the interaction with CBD was detected by BL1. Only minimal binding between CBD and the dimerization binders was detected (data not shown). Moreover, the binding-dissociation dynamics of the CA-14-CBD complex can also affect the measurement of dimerization binder affinities. To address this, the affinity was measured by a BLI assay in which the biosensor-immobilized dimerization binders were interacted with CA-14 pre-equilibrated with varied concentrations of CBD (FIG. 9a). The concentrations of the CA-14-CBD complex in equilibrium were calculated based on input CA-14 and CBD concentrations. The CA-14-CBD complex concentration was approximated to be constant because only a minimal fraction of the complex bound to the biosensor tips during the BLI assay. It was confirmed that CA-14 only interacts with the dimerization binders in the presence of CBD (FIG. 3a).
The nanobody binding kinetics was analyzed using an Octet™ RED96 system (ForteBio) and Streptavidin (SA) or Super Streptavidin (SSA) biosensors. For the anchor-binder analysis, 200 nM biotinylated anchor binders were immobilized on SSA biosensors with a binding assay buffer (1×PBS, pH 7.4, 0.05% Tween 20, 0.2% BSA, 3% methanol; Note: because CBD and THC were dissolved in methanol to make stock solutions, 3% methanol was added to the buffer to fairly compare samples and controls). Serial dilutions of CBD and THC were used for the anchor binder assays. Dissociation constants (KDS) of anchor binder-ligand interactions were calculated based on a steady-state analysis using Octet™ RED96 data analysis software.

[2] = target: T1, CA-14 bound to cannabidiol (CA-14-CBD …); assay: BLI; biotinylated DB-18 on streptavidin biosensors, analyte CA-14 pre-equilibrated with CBD; value printed in the scheme of ternary complex formation
Source text: as §1, with “It was confirmed that CA-14 only interacts with the dimerization binders in the presence of CBD (FIG. 3a).” left out
The nanobody binding kinetics was analyzed using an Octet™ RED96 system (ForteBio) and Streptavidin (SA) or Super Streptavidin (SSA) biosensors. […] Dissociation constants (KDS) of anchor binder-ligand interactions were calculated based on a steady-state analysis using Octet™ RED96 data analysis software.

B1: dimerization binder DB-6 (VHH)
VHH: EVQLQASGGGFVQPGGSLRLSCAASGRFSWGEEMGWFRQAPGKEREFVSAISWAATPWQYYADSVKGRFTISRDNSKNTVYLQMNSLRAEDTATYYCADEWHIGHVSYWGQGTQVTVSS
modifications: AviTag biotinylated by BirA (BLI)
notes: Purified, tagged and biotinylated in BLI; not shown: C-terminal AviTag and His tag (purified form)
Kd [1]: 19000 nM
koff [1]: 0.182 s⁻¹
kon [1]: 9600 M⁻¹ s⁻¹

B2: dimerization binder DB-21 (VHH)
VHH: EVQLQASGGGFVQPGGSLRLSCAASGTTYGQTNMGWFRQAPGKEREFVSAISGLQGRDLYYADSVKGRFTISRDNSKNTVYLQMNSLRAEDTATYYCAFHDFLRMWEYWGQGTQVTVSS
modifications: AviTag biotinylated by BirA (BLI)
notes: Purified and tagged in BLI (biotinylated) and SEC; the form used in the sandwich ELISA-like assay is not clearly stated (same id used for all); not shown: C-terminal AviTag and His tag (purified form)
Kd [1]: 56.4 nM
koff [1]: 0.000617 s⁻¹
kon [1]: 11000 M⁻¹ s⁻¹

B3: dimerization binder DB-11 (VHH)
VHH: EVQLQASGGGFVQPGGSLRLSCAASGTTSDNDTMGWFRQAPGKEREFVSAISWNGGRDEYYADSVKGRFTISRDNSKNTVYLQMNSLRAEDTATYYCAYQDNRSWQEYWGQGTQVTVSS
modifications: AviTag biotinylated by BirA (BLI)
notes: as for B1
Kd [1]: 1380 nM
koff [1]: 0.084 s⁻¹
kon [1]: 61000 M⁻¹ s⁻¹

B4: dimerization binder DB-18 (VHH)
VHH: EVQLQASGGGFVQPGGSLRLSCAASGGYSRADDMGWFRQAPGKEREFVSAISFGETDSFYYADSVKGRFTISRDNSKNTVYLQMNSLRAEDTATYYCAYHNYTNMFEYWGQGTQVTVSS
modifications: AviTag biotinylated by BirA (BLI)
notes: Purified and tagged in BLI (biotinylated) and SEC; also called 1DB-18; not shown: C-terminal AviTag and His tag (purified form)
Kd [1]: 553 nM
koff [1]: 0.0227 s⁻¹
kon [1]: 41000 M⁻¹ s⁻¹
Kd [2]: 553 nM
